Test results published in patent US20240415975A1 (ABTIS, published 2024).
Several values for one entry are separate records, joined by “and”; a condition that tells them apart may be missing. Equal values may be shown once.

B1: ADC-A (MMAE conjugated with antibody-A) (antibody, human IgG1, kappa, V domains shown)
VH: QVQLVESGGGVVQPGRSLRLSCAASGFSLTTYGVHWVRQAPGKGLEWVAVIWAGGSTNYNSALMSRFTISRDNSKNTLYLQMNSLRAEDTAVYYCARAAYYGNGLDYWGQGTMVTVSS
VL: DIVMTQSPLSLPVTPGEPASISCKSSQTLLNSGNQKNYLTWYLQKPGQSPQLLIYWASTGESGVPDRFSGSGSGTDFTLKISRVEAEDVGVYYCQNAYFYPFTFGGGTKVEIKR
modifications: payload (PEG8)2-BG-MMAE linked through a linker to lysine residue 246 or 248 (EU numbering) of each heavy chain (DAR 2)
notes: which of K246 or K248 carries the payload is not resolved
B2: anti-Claudin 18.2 antibody (Anti-CLDN18.2 mAb) (antibody-A) (antibody, human IgG1, kappa, V domains shown)
VH: B1 VH
VL: B1 VL
notes: two heavy and two light chains; Elsewhere called an IgG1 type anti-CLDN18.2 antibody; Obtained from GenScript ProBio

Tests used:
[1] = molecular target: Claudin 18.2 protein (CLDN18.2), expressed on cells (UniProt P56856); assay: cell-based ELISA (OD 450 nm) on MIA PaCa-2-CLDN18.2 cells; regression in GraphPad Prism
[2] = molecular target: CLDN18.2 virus-like particle (VLP) in which the claudin 18.2 protein (CLDN18.2) was expressed (UniProt P56856); assay: indirect ELISA (OD 450 nm) on plate coated with CLDN18.2 VLP; regression in GraphPad Prism
[3] = molecular target: Claudin 18.2 protein (CLDN18.2), expressed on cells (UniProt P56856); assay: cell-based ELISA (OD 450 nm) on PATU8988S cells (CLDN18.2+); regression in GraphPad Prism
[4] = molecular target: Claudin 18.2 protein (CLDN18.2), expressed on cells (UniProt P56856); assay: cell-based ELISA (OD 450 nm) on SNU601 cells (CLDN18.2+); regression in GraphPad Prism
[5] = molecular target: T1, Claudin 18.2 protein (CLDN18.2), expressed on cells (UniProt P56856-2 1-261); assay: cell-based ELISA on CHO-K1 cells transiently transfected with CLDN18.2; regression in GraphPad Prism (row labelled Kd, text says EC50)
T1 construct: whole, on cells; One molecule is used for all cell lines carrying CLDN18.2; the cell line is named under assay
Description: (§1) The measured results were used for regression analysis in GraphPad PRISM® 9.0 software to calculate EC50 and Bmax.

[6] = molecular target: T1, Claudin 18.2 protein (CLDN18.2), …; assay: cell-based or functional assay
[7] = molecular target: T2, CLDN18.2 virus-like particle (VLP) in which the claudin 18.2 protein (CLDN18.2) was expressed (UniProt P56856 1-261); assay: indirect ELISA on plate coated with CLDN18.2 VLP; regression in GraphPad Prism (row labelled Kd, text says EC50)
T2 construct: Bought reagent; also called CLDN18.2 VLP; CLDN18.2~VLP

[8] = molecular target: T3, Claudin 18.1 protein (CLDN18.1), expressed on CHO-K1 cells (UniProt P56856 1-261, limits assumed); assay: cell-based ELISA on CHO-K1 cells transiently transfected with CLDN18.1
T3 construct: whole, on cells; also called CLDN18.1~CHO-K1
Description: as §1

| Molecule | Bmax [1] | Bmax [2] | Bmax [3] | Bmax [4] | Kd [5] | IC50 (nM), cell viability (CellTiter-Glo), MIA PaCa-2 (CLDN18.2+) [6] | IC50 (nM), cell viability (CellTiter-Glo), NUGC4 (CLDN18.2+) [6] | IC50 (nM), cell viability (CellTiter-Glo), PATU8988S (CLDN18.2+) [6] | IC50 (nM), cell viability (CellTiter-Glo), SNU601 (CLDN18.2+) [6] | Kd [7] | binding result [8] |
| --- | --- | --- | --- | --- | --- | --- | --- | --- | --- | --- | --- |
| Zolbetuximab (antibody-B) | 3.05 | 2.13 | 1.21 | 1.7 | – | – | – | – | – | – | – |
| B1 | – | – | – | – | 0.123 µg/mL and 0.82 nM | 0.101 nM | 1.59 nM | 0.279 nM | 0.095 nM | 0.0527 µg/mL and 0.351 nM | no binding |
| B2 | – | – | – | – | 0.0636 µg/mL and 0.424 nM | – | – | – | – | 0.0319 µg/mL and 0.212 nM | no binding |
